Measured values published in PMC5491523 (2017).

B1: CIB2-V5 (calcium and integrin-binding protein 2, V5 tagged, wild type) [human] / TMC1-EGFP (EGFP tagged human full length TMC1) [human] (parent complex)
chain 1: MGNKQTIFTEEQLDNYQDCTFFNKKDILKLHSRFYELAPNLVPMDYRKSPIVHVPMSLIIQMPELRENPFKERIVAAFSEDGEGNLTFNDFVDMFSVLCESAPRELKANYAFKIYDFNTDNFICKEDLELTLARLTKSELDEEEVVLVCDKVIEEADLDGDGKLGFADFEDMIAKAPDFLSTFHIRI
chain 2: MSPKKVQIKVEEKEDETEESSSEEEEEVEDKLPRRESLRPKRKRTRDVINEDDPEPEPEDEETRKAREKERRRRLKRGAEEEEIDEEELERLKAELDEKRQIIATVKCKPWKMEKKIEVLKEAKKFVSENEGALGKGKGKRWFAFKMMMAKKWAKFLRDFENFKAACVPWENKIKAIESQFGSSVASYFLFLRWMYGVNMVLFILTFSLIMLPEYLWGLPYGSLPRKTVPRAEEASAANFGVLYDFNGLAQYSVLFYGYYDNKRTIGWMNFRLPLSYFLVGIMCIGYSFLVVLKAMTKNIGDDGGGDDNTFNFSWKVFTSWDYLIGNPETADNKFNSITMNFKEAITEEKAAQVEENVHLIRFLRFLANFFVFLTLGGSGYLIFWAVKRSQEFAQQDPDTLGWWEKNEMNMVMSLLGMFCPTLFDLFAELEDYHPLIALKWLLGRIFALLLGNLYVFILALMDEINNKIEEEKLVKANITLWEANMIKAYNASFSENSTGPPFFVHPADVPRGPCWETMVGQEFVRLTVSDVLTTYVTILIGDFLRACFVRFCNYCWCWDLEYGYPSYTEFDISGNVLALIFNQGMIWMGSFFAPSLPGINILRLHTSMYFQCWAVMCCNVPEARVFKASRSNNFYLGMLLLILFLSTMPVLYMIVSLPPSFDCGPFSGKNRMFEVIGETLEHDFPSWMAKILRQLSNPGLVIAVILVMVLAIYYLNATAKGQKAANLDLKKKMKMQALENKMRNKKMAAARAAAAAGRQ

Variants of: B1
Test: FRET; cells co-expressing EGFP tagged human TMC1 (donor) and V5 tagged human CIB2; parent: 22; read off a plot
chain 1 F91S showed a response of roughly 3%.
chain 1 E64D showed a response of roughly 6.5%.
In the case of chain 1 C99W, the response is reported as roughly 5%.
Variant chain 1 R66W has a response of roughly 19%.
chain 1 I123T was tested, and the response was roughly 18%.
chain 1 R186W gave a response of roughly 19%.
